The results in this text go back to US20060165683A1, “Methods and compositions for control of bone formation via modulation of sympathetic tone” (priority 2001, published 2006).

Entries after “also recorded” stand apart in the source; their conditions may differ.

The subject of series [1] is primary osteoblasts isolated from wild-type mice. Description: Leptin signaling in primary osteoblast cultures (Stat3 phosphorylation, immediate early genes, matrix synthesis and mineralization). It counts as cell-based, mouse. The method, then: Expression of leptin in osteoblasts was studied in subconfluent primary osteoblast cultures from wild-type mice which were maintained for 4 days in 10% FBS mineralization medium and then subsequently switched to 0.5% for 2 days and replaced daily. Medium was replaced 2 hours before a 20 min treatment with 80 ng/mL leptin (Sigma) or 40 ng/mL Oncostatin M (R&D Diagnostics) or vehicle. RNA extractions were performed using Triazol (Gibco). Northern blots were performed with 15 μg of total RNA according to methods well known in the art.
To determine whether or not leptin could transduce its signal in osteoblasts, serum-starved primary osteoblasts isolated from wild-type mice were treated with leptin. Primary osteoblast cultures from calvaria of newborn wild-type or db/db mice were established as previously described (Ducy et al., 1999, Genes Dev 13, 1025-1036) and maintained in mineralization medium (αMEMI 0.1 mg/mL ascorbic acid; 5 mM […]) supplemented with 10% […]. Cultures of mutant cells were maintained in this medium for 15 days before analysis. Cultures derived from wild-type mice were maintained for 10 days in this medium then the percentage of serum was reduced to 0.5% and the medium supplemented with 1.2 μg/mL leptin (Sigma) or vehicle for 5 days.
The phosphorylation of Stat3, a downstream effector of leptin signaling in its target cells (Tartaglia et al., 1995, Cell 83, 1263-1271; Baumann et al., 1996, Proc Natl Acad Sci USA 93, 8374-8378; Ghilardi et al., 1996, Proc Natl Acad Sci USA 93, 6231-6235; Vaisse et al., 1996, Nat Genet 14, 95-97), was monitored, in addition to the expression of two immediate early genes whose transcription is increased following leptin treatment of target cells (Elmquist et al., 1997, Endocrinology 138, 839-842). As a positive control oncostatin-M that induces Stat3 phosphorylation and activates the expression of the same two immediate early genes in osteoblasts (Levy et al., 1996, Endocrinology 137, 1159-1165) was utilized. Western blot analysis was performed to determine Stat3 phosphorylation as follows. Cells were lysed, protein extracts were separated on a 7.5% SDS-PAGE and blotted on nitrocellulose (Biorad) for immunoblotting assay by methods well known in the art. Analysis of Stat3 phosphorylation was performed using the PhosphoPlus Stat3 (Tyr7O5) Antibody kit (New England Biolabs) according to the manufacturer's instructions.
Finally, the effect of a long-term leptin treatment of primary osteoblast cultures from wild-type mice on extracellular matrix synthesis and bone matrix mineralization was determined. The presence of a collagen-rich extracellular matrix and of mineralization nodules was assessed by whole-mount staining of the cultures by the van Gieson and von Kossa reagent, respectively. No difference was observed when assessing collagen synthesis or mineralization nodule formation between control and leptin-treated cultures (FIG. 5E).

For another series, the system named is wildtype mice. The series is described as follows: Central (ICV) infusion of leptin in wildtype mice. Type of series: in vivo, mouse. The method, then: (§1) Wildtype (C57BL/6J) and mutant (C57BL/6J A^y/a, C57BL/6J ob/ob) mice were obtained from the Jackson laboratory and adrenal medullectomized mice from Harlan Tecklad laboratory. Dbh−/− mice were rescued as previously described (Thomas et al., 1998, Neurochem 70:2468-2476). Isoproterenol (Sigma) was injected intraperitoneally (ip) once daily for 6 weeks at 30 mg/kg (wt) or 3 mg/kg (ob/ob). Propranolol (Sigma) was added to the drinking water at a concentration of 0.5 g/l. For ICV infusion, a 28-gauge cannula (Brain infusion kit II, Alza) was implanted into the third ventricle as previously described infusing human leptin (Sigma) at 8 ng/hr or MT-II at 125 ng/hr (Phoenix Pharmaceuticals) for 28 days (see, e.g., Ducy et al., 2000, Cell 100: 197-207). The cannula was connected to an osmotic pump (Alza) placed in the dorsal subcutaneous space of the animal. For parabiosis longitudinal incisions were made in the skin and in the peritoneal cavity along one side on each mouse. Edges of the incisions were connected by suture to induce coelioanastomosis. Cross-circulation was quantified by injecting 1 ml/kg 0.25% Evans blue into the tail vein of one mouse of the parabiosed pair. After 30 min. blood was collected from both mice by retroorbital bleeding and the blood exchange rate was calculated according to standard techniques (see, e.g., Harris & Martin, 1984, Am J Physiol 247:R380-386). […]

Another series has as its system parabiosed ob/ob mice. The series is described as follows: Cross circulation (parabiosis) between ob/ob mice with leptin ICV in one mouse of each pair. Type of series: in vivo. An excerpt:
Cross Circulation (Parabiosis) Procedure. Following anesthesia by standard procedures, the surgery is made under adequate anesthesia and aseptic techniques. A longitudinal incision is made along one side on each mouse and skin is loosened from connective tissue. The ventral edges of the incision are joined by suture. Abdominal cavity of each mouse is opened and connected to make coelio anastomosis. Finally, the dorsal edges of the skin incision are joined. Parabiosed mice are housed in separate cages subsequently. Mice used for this procedure are syngenic to avoid immune reactions. Bone histology and histomorphometry are performed at the end of the treatment period to determine bone mass.
To determine whether the signal(s) emanating from the brain and controlling bone formation was/were of humoral nature, cross circulation (parabiosis) experiments were performed between ob/ob mice. Four weeks after establishing and verifying the cross circulation, a pump delivering leptin ICV (8 ng/h) was installed in one mouse of each parabiosed pair. […] Body weight and bone histology of the ipsilateral and contralateral mouse of each pair was analyzed four weeks later, reasoning that if leptin was using humoral means to control body weight and bone mass, both mice in each pair should respond equally well to the leptin infusion.
Wildtype (C57BL/6J) and mutant (C57BL/6J A^y/a, C57BL/6J ob/ob) mice were obtained from the Jackson laboratory and adrenal medullectomized mice from Harlan Tecklad laboratory. Dbh−/− mice were rescued as previously described (Thomas et al., 1998, Neurochem 70:2468-2476). Isoproterenol (Sigma) was injected intraperitoneally (ip) once daily for 6 weeks at 30 mg/kg (wt) or 3 mg/kg (ob/ob). Propranolol (Sigma) was added to the drinking water at a concentration of 0.5 g/l. For ICV infusion, a 28-gauge cannula (Brain infusion kit II, Alza) was implanted into the third ventricle as previously described infusing human leptin (Sigma) at 8 ng/hr or MT-II at 125 ng/hr (Phoenix Pharmaceuticals) for 28 days (see, e.g., Ducy et al., 2000, Cell 100: 197-207). The cannula was connected to an osmotic pump (Alza) placed in the dorsal subcutaneous space of the animal. For parabiosis longitudinal incisions were made in the skin and in the peritoneal cavity along one side on each mouse. Edges of the incisions were connected by suture to induce coelioanastomosis. Cross-circulation was quantified by injecting 1 ml/kg 0.25% Evans blue into the tail vein of one mouse of the parabiosed pair. After 30 min. blood was collected from both mice by retroorbital bleeding and the blood exchange rate was calculated according to standard techniques (see, e.g., Harris & Martin, 1984, Am J Physiol 247:R380-386). […] Two weeks after parabiosis a pump delivering leptin ICV in one animal of each pair was implanted. For GTG lesioning, 4-week-old C57BL/6J mice were given a single ip injection of either PBS or GTG (0.5 mg/g). For MSG lesioning, 2 day-old C57BL/6J pups were injected daily subcutaneously with either PBS or MSG (2 mg/g) for 10 days.
The next question was whether the signal(s) emanating from the hypothalamic antiosteogenic network was/were of humoral or of neuronal nature. To that end, cross-circulation (parabiosis) experiments between ob/ob animals (that have no circulating leptin) were relied upon. […] Four weeks later the animals were sacrificed and analyzed.

The test system of the next series is GTG-treated ob/ob mice. Description: Leptin ICV infusion in GTG-treated ob/ob mice. It counts as in vivo, mouse. The procedure: as §1
A further series concerns Dbh-deficient mice. Description: Leptin ICV infusion in Dbh-deficient mice. It counts as in vivo, mouse. The method, then: as §1
Setting [2] is: contralateral parabiosed partner.
The mark [3] stands for this setting: ipsilateral mouse, 8 ng/h, four weeks.

B1: leptin: polypeptide hormone, product of the ob gene; human leptin (Sigma) infused ICV (protein)
chain: VPIQKVQDDTKTLIKTIVTRINDISHTQSVSAKQRVTGLDFIPGLHPILSLSKMDQTLAVYQQVLTSLPSQNVLQIANDLENLRDLLHLLAFSKSCSLPQTSGLQKPESLDGVLEASLYSTEVVALSRLQGSLQDILQQLDVSPEC
Consider B1, for which, in series [1] (long-term treatment, 1.2 μg/mL leptin for 5 days, 0.5% serum), the “collagen synthesis or mineralization nodule formation vs control cultures” value is listed as “No difference”. In addition, in series [1] (primary osteoblasts, 20 min treatment), the “expression of Tis11 and c-fos (Northern analysis)” value is on record as “not”. For the same molecule, the “Stat3 phosphorylation (Western blot)” value in series [1] (serum-starved primary osteoblasts, 20 min, leptin 80 ng/mL, Oncostatin M 40 ng/mL) was “did not”. Further, the “bone mass / bone volume and bone formation parameters” value in the series on wildtype mice is “decreased”. In the series with parabiosed ob/ob mice (setting [2]), the “body weight loss in the contralateral mouse” value was “never observed” and the “bone mass / bone volume of the contralateral mouse” value is given as “never observed; also recorded: no modification”. In addition, in the series on parabiosed ob/ob mice (setting [3]), the “body weight of the ob/ob mouse receiving leptin ICV” value is given as “dropped considerably” and the “bone mass / bone volume of the ob/ob mouse receiving leptin ICV” value is “dropped considerably; also recorded: dropped significantly”. Besides, the “leptin in plasma / serum (leakage into the general circulation)” value with parabiosed ob/ob mice (parabiosed ob/ob mice after ICV infusion) is recorded as “absence of measurable leptin”. Further, in the series with GTG-treated ob/ob mice, the body weight result is recorded as “decreased” and the bone mass entry is recorded as “failed to decrease”. In the series with Dbh-deficient mice, the bone mass result is given as “failed to decrease” and the gonadal fat pad entry is “near disappearance”.
